The values below are quoted from earlier work in patent publication US10544449B2, “Bis-biotinylation tags” (Pacific Biosciences of California, Inc., priority 2013, dated 2020).

The conditions of data set [1]: cited from earlier work.
The conditions of data set [2]: compared with streptavidin; cited from earlier work.

With streptavidin, the “accumulation in kidney, share of injected dose” value in data set [1] (injected streptavidin) is recorded as 15-20%. Further, the “time remaining in the kidneys” value in data set [1] (mice, rats, and rabbits) was 3 to 4 days. With traptavidin, the slower biotin off-rate in data set [2] is on record as approximately 10 fold.
